The values that follow come from the supplement of paper PMC7125110.

± gives the standard error. Fewer inactive variants are shown than the library holds. A value given as a limit tells only on which side of the number the result lay.

To fix the notation:
B1: glmS ribozyme (parent)
chain: AUAAAAGCGCCAGAACUACAGAAAUGUAGUUGACGAGGAGGAGGUUUAUCGAAUUUUCGGCGGAUGCCUCCAAA

Conditions in all cases: with glucosamine-6-phosphate
Variants of B1 are the subject of data set [1]. Kind of data set: self-cleavage kobs at 640 uM GlcN6P; higher = faster cleavage; RNA array. Put shortly: (§1)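 On sequenced MiSeq chips, barcoded ribozyme variants were made in situ by E. coli RNA polymerase and followed at 37 °C through a hybridised Cy3 probe. Glucosamine-6-phosphate was flowed in at 40 μM to 10 mM in HEPES/KCl/Mg(OAc)2 buffer. Exponential fits to normalised per-tile medians gave kobs, and weighted Michaelis–Menten fits gave kcat and KM.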

The variants in data set [2] derive from B1. As to the kind of experiment: self-cleavage kobs at 2500 uM GlcN6P; higher = faster cleavage; RNA array. The gist of the method: as §1
The variants in data set [3] derive from B1. Kind of data set: self-cleavage kobs at 10000 uM GlcN6P; higher = faster cleavage; RNA array. The gist of the method: as §1

As to G7A A48C U69G, the “self-cleavage kobs at 640 uM GlcN6P” value with glucosamine-6-phosphate [1] is less than 1e-05 s⁻¹. Further, the “self-cleavage kobs at 2500 uM GlcN6P” value with glucosamine-6-phosphate [2] is less than 1e-05 s⁻¹.
G9U A42G U45A C58G: the “self-cleavage kobs at 640 uM GlcN6P” value with glucosamine-6-phosphate [1] was less than 1e-05 s⁻¹. In addition, the “self-cleavage kobs at 2500 uM GlcN6P” value in the data set with glucosamine-6-phosphate [2] is less than 1e-05 s⁻¹.
Regarding U31G C58A G60C, the “self-cleavage kobs at 640 uM GlcN6P” value with glucosamine-6-phosphate [1] is less than 1e-05 s⁻¹. The “self-cleavage kobs at 2500 uM GlcN6P” value with glucosamine-6-phosphate [2] was less than 1e-05 s⁻¹.
With G9U G40U U47G U65A, the “self-cleavage kobs at 640 uM GlcN6P” value with glucosamine-6-phosphate [1] was less than 1e-05 s⁻¹. The “self-cleavage kobs at 2500 uM GlcN6P” value with glucosamine-6-phosphate [2] was less than 1e-05 s⁻¹.
For G7U G38C U45C C70G, the “self-cleavage kobs at 640 uM GlcN6P” value with glucosamine-6-phosphate [1] is less than 1e-05 s⁻¹.
For the variant C8G U30C A64C, the “self-cleavage kobs at 640 uM GlcN6P” value with glucosamine-6-phosphate [1] is less than 1e-05 s⁻¹. Moreover, in the data set with glucosamine-6-phosphate [2], the “self-cleavage kobs at 2500 uM GlcN6P” value is less than 1e-05 s⁻¹. In addition, in the data set with glucosamine-6-phosphate [3], the “self-cleavage kobs at 10000 uM GlcN6P” value is less than 1e-05 s⁻¹.
For the variant C16G G29A A39C, the “self-cleavage kobs at 640 uM GlcN6P” value with glucosamine-6-phosphate [1] turned out to be 0.000119 ± 2.9e-05 s⁻¹. Besides, in the data set with glucosamine-6-phosphate [2], the “self-cleavage kobs at 2500 uM GlcN6P” value turned out to be 0.00027 ± 6.6e-05 s⁻¹.
Regarding G32U G51A U57A, in the data set with glucosamine-6-phosphate [1], the “self-cleavage kobs at 640 uM GlcN6P” value is less than 1e-05 s⁻¹. The “self-cleavage kobs at 2500 uM GlcN6P” value with glucosamine-6-phosphate [2] is less than 1e-05 s⁻¹.
As for C8G U31A A39C G44U, the “self-cleavage kobs at 640 uM GlcN6P” value in the data set with glucosamine-6-phosphate [1] was less than 1e-05 s⁻¹.
In the case of C10G C16U A52U U54C G66A, in the data set with glucosamine-6-phosphate [1], the “self-cleavage kobs at 640 uM GlcN6P” value was less than 1e-05 s⁻¹.
Turning to G7U A64U, the “self-cleavage kobs at 640 uM GlcN6P” value in the data set with glucosamine-6-phosphate [1] is less than 1e-05 s⁻¹. Moreover, the “self-cleavage kobs at 10000 uM GlcN6P” value with glucosamine-6-phosphate [3] is less than 1e-05 s⁻¹.
Take G35U G44C G66U: the “self-cleavage kobs at 640 uM GlcN6P” value in the data set with glucosamine-6-phosphate [1] was less than 1e-05 s⁻¹.
Regarding G29U G43C U56C, the “self-cleavage kobs at 640 uM GlcN6P” value with glucosamine-6-phosphate [1] was less than 1e-05 s⁻¹.
Take A12U U56C C71A: in the data set with glucosamine-6-phosphate [1], the “self-cleavage kobs at 640 uM GlcN6P” value was found to be 5.04e-05 ± 1.6e-05 s⁻¹. Moreover, the “self-cleavage kobs at 2500 uM GlcN6P” value with glucosamine-6-phosphate [2] stood at 0.00012 ± 4e-05 s⁻¹.
Take A15U U30A A53U C58A U65C U69A C71G: the “self-cleavage kobs at 640 uM GlcN6P” value with glucosamine-6-phosphate [1] amounted to 4.92e-05 ± 2e-05 s⁻¹.
As for A15G U57A, the “self-cleavage kobs at 640 uM GlcN6P” value with glucosamine-6-phosphate [1] worked out at 0.000105 ± 2e-05 s⁻¹. Further, the “self-cleavage kobs at 2500 uM GlcN6P” value with glucosamine-6-phosphate [2] came out at 0.000107 ± 2.8e-05 s⁻¹. Also, the “self-cleavage kobs at 10000 uM GlcN6P” value in the data set with glucosamine-6-phosphate [3] worked out at 0.000392 ± 5.3e-05 s⁻¹.
Take A14U A36U U56G C67G: the “self-cleavage kobs at 640 uM GlcN6P” value with glucosamine-6-phosphate [1] is 0.000671 ± 0.0003 s⁻¹.
Consider A39G G51A, for which the “self-cleavage kobs at 640 uM GlcN6P” value with glucosamine-6-phosphate [1] is less than 1e-05 s⁻¹. Moreover, in the data set with glucosamine-6-phosphate [2], the “self-cleavage kobs at 2500 uM GlcN6P” value is less than 1e-05 s⁻¹.
In the case of A15U U49G A64C, the “self-cleavage kobs at 640 uM GlcN6P” value with glucosamine-6-phosphate [1] was less than 1e-05 s⁻¹.
G35C G41U A64G: the “self-cleavage kobs at 640 uM GlcN6P” value in the data set with glucosamine-6-phosphate [1] was less than 1e-05 s⁻¹.
As for G9A U45A C50G C68U, the “self-cleavage kobs at 640 uM GlcN6P” value with glucosamine-6-phosphate [1] was less than 1e-05 s⁻¹. The “self-cleavage kobs at 10000 uM GlcN6P” value with glucosamine-6-phosphate [3] is less than 1e-05 s⁻¹.
As to A42U G59C G60A, the “self-cleavage kobs at 640 uM GlcN6P” value in the data set with glucosamine-6-phosphate [1] was less than 1e-05 s⁻¹.
With A15U C16U G51C C58G C61G C67U, the “self-cleavage kobs at 640 uM GlcN6P” value with glucosamine-6-phosphate [1] was found to be 0.000417 ± 8.1e-05 s⁻¹.
On the same count and under the same terms, the value for G38C C58A C71U was less than 1e-05 s⁻¹.
As to C16U U46C G62U, in the data set with glucosamine-6-phosphate [1], the “self-cleavage kobs at 640 uM GlcN6P” value was less than 1e-05 s⁻¹.
With C11G U31G G35C C71U, in the data set with glucosamine-6-phosphate [1], the “self-cleavage kobs at 640 uM GlcN6P” value is less than 1e-05 s⁻¹. Also, the “self-cleavage kobs at 2500 uM GlcN6P” value with glucosamine-6-phosphate [2] was less than 1e-05 s⁻¹.
Regarding A39C A42U G62C A64U, the “self-cleavage kobs at 640 uM GlcN6P” value with glucosamine-6-phosphate [1] was less than 1e-05 s⁻¹.
Turning to G29U A33C U49G A64U, the “self-cleavage kobs at 640 uM GlcN6P” value with glucosamine-6-phosphate [1] was less than 1e-05 s⁻¹.
For the variant C10A C58U G63A A64U, the “self-cleavage kobs at 640 uM GlcN6P” value with glucosamine-6-phosphate [1] is less than 1e-05 s⁻¹. The “self-cleavage kobs at 2500 uM GlcN6P” value in the data set with glucosamine-6-phosphate [2] is less than 1e-05 s⁻¹.
In the case of U30A G32A G35C U45C, the “self-cleavage kobs at 640 uM GlcN6P” value with glucosamine-6-phosphate [1] is less than 1e-05 s⁻¹. In the data set with glucosamine-6-phosphate [2], the “self-cleavage kobs at 2500 uM GlcN6P” value is less than 1e-05 s⁻¹.
On to G35C G37C A39C G63C, for which the “self-cleavage kobs at 640 uM GlcN6P” value with glucosamine-6-phosphate [1] was less than 1e-05 s⁻¹. In the data set with glucosamine-6-phosphate [2], the “self-cleavage kobs at 2500 uM GlcN6P” value was less than 1e-05 s⁻¹.
Turning to A14U A53U C67G, the “self-cleavage kobs at 640 uM GlcN6P” value in the data set with glucosamine-6-phosphate [1] was determined as 0.000162 ± 4.5e-05 s⁻¹.
On to G44A A53U U54G C61U, for which, in the data set with glucosamine-6-phosphate [1], the “self-cleavage kobs at 640 uM GlcN6P” value was less than 1e-05 s⁻¹.
With G13C G59A, the “self-cleavage kobs at 640 uM GlcN6P” value in the data set with glucosamine-6-phosphate [1] was less than 1e-05 s⁻¹. Also, the “self-cleavage kobs at 10000 uM GlcN6P” value with glucosamine-6-phosphate [3] was less than 1e-05 s⁻¹.
